The text below walks through data of patent US20260007747A1 (VIVASOR, published 2026).

The labels stand for the following.
B1: αPDL1-δ-TCRγδ receptor encoded by construct GD102 (other)
chain 1: EVQLVESGAEVKKPGSSVKVSCKASGGTFSSYAISWVRQAPGQGLEWMGGIIPIFGTANYAQKFQGRVTITADESTSTAYMELSSLRSEDTAVYYCARAPYYYYYMDVWGQGTTVTVSSGGGGSGGGGSGGGGSQSALTQPASVSGSLGQSVTISCTGSSSDVGSYNLVSWYQQHPGKAPNLMIYDVSKRSGVSNRFSGSKSGNTASLTISGLQAEDEADYYCSSYTGISTVVFGGGTKLTVLEVKTDSTDHVKPKETENTKQPSKSCHKPKAIVHTEKVNMMSLTVLGLRMLFAKTVAVNFLLTAKLFFL
chain 2: PIKTDVITMDPKDNCSKDANDTLLLQLTNTSAYYMYLLLLLKSVVYFAIITCCLLRRTAFCCNGEKS
B2: PD-L1 CAR-ζFL (other)
chain: EVQLVESGAEVKKPGSSVKVSCKASGGTFSSYAISWVRQAPGQGLEWMGGIIPIFGTANYAQKFQGRVTITADESTSTAYMELSSLRSEDTAVYYCARAPYYYYYMDVWGQGTTVTVSSGGGGSGGGGSGGGGSQSALTQPASVSGSLGQSVTISCTGSSSDVGSYNLVSWYQQHPGKAPNLMIYDVSKRSGVSNRFSGSKSGNTASLTISGLQAEDEADYYCSSYTGISTVVFGGGTKLTVLAKPTTTPAPRPPTPAPTIASQPLSLRPEACRPAAGGAVHTRGLDFAPRKIEVMYPPPYLDNEKSNGTIIHVKGKHLCPSPLFPGPSKPFWVLVVVGGVLACYSLLVTVAFIIFWVKRGRKKLLYIFKQPFMRPVQTTQEEDGCSCRFPEEEEGGCELRVKFSRSADAPAYQQGQNQLYNELNLGRREEYDVLDKRRGRDPEMGGKPRRKNPQEGLYNELQKDKMAEAYSEIGMKGERRRGKGHDGLYQGLSTATKDTYDALHMQALPPR
B3: αPDL1-γ-TCRγδ receptor encoded by construct GD109 (other)
chain 1: EVQLVESGAEVKKPGSSVKVSCKASGGTFSSYAISWVRQAPGQGLEWMGGIIPIFGTANYAQKFQGRVTITADESTSTAYMELSSLRSEDTAVYYCARAPYYYYYMDVWGQGTTVTVSSGGGGSGGGGSGGGGSQSALTQPASVSGSLGQSVTISCTGSSSDVGSYNLVSWYQQHPGKAPNLMIYDVSKRSGVSNRFSGSKSGNTASLTISGLQAEDEADYYCSSYTGISTVVFGGGTKLTVLPIKTDVITMDPKDNCSKDANDTLLLQLTNTSAYYMYLLLLLKSVVYFAIITCCLLRRTAFCCNGEKS
chain 2: EVKTDSTDHVKPKETENTKQPSKSCHKPKAIVHTEKVNMMSLTVLGLRMLFAKTVAVNFLLTAKLFFL

This test deals with PD-L1 expressed on tumor cells (A549 wild type, MDA-MB-231, SK-MEL-5) (human, UniProt Q9NZQ7 19-290). As to the kind of experiment: cell-based or functional assay.
PD-L1 expressed on tumor cells (A549 wild type, MDA-MB-231, SK-MEL-5), sequence (Q9NZQ7 19-290): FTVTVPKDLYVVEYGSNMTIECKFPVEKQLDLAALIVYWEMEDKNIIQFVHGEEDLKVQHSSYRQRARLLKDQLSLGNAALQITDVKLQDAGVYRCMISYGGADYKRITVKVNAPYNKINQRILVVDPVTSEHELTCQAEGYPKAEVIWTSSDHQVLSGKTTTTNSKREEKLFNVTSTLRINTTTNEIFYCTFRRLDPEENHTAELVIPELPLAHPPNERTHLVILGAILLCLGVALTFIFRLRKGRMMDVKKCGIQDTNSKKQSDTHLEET
For the molecule B1, the “expansion of T cells on irradiated tumor cells, E:T 1:4” value (shortened to “expansion of T cells”) was more than 100 fold.

For the molecule B2, the “expansion of T cells” value was more than 100 fold.

In the case of B3, the “expansion of T cells” value is more than 100 fold.
